According to patent US20120201835A1 (MERCK, published 2012):

T1: Mouse Dkk-1 (mouse, UniProt O54908 32-272)
T1 construct: Recombinant; also called MsDkk-1; murine Dkk-1
T1 sequence (looked up): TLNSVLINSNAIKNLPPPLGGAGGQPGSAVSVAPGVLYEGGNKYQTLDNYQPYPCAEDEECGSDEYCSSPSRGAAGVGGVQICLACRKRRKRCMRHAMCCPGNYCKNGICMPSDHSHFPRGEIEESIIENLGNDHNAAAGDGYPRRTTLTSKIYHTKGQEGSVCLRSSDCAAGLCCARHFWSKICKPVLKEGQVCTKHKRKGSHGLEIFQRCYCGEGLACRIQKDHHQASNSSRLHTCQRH

T2: Human Dkk-1 (human, UniProt O94907 32-266)
T2 sequence: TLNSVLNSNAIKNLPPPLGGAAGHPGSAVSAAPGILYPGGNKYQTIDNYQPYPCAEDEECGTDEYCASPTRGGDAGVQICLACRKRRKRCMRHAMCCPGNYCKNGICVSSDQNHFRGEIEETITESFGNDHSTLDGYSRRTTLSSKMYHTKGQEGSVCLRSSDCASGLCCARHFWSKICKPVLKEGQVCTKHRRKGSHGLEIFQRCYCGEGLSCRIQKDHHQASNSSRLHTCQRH

T3: Rhesus monkey Dkk-2 (chimeric protein: N-terminal region of rhesus Dkk-1 fused to the C-terminal region of … (Rhesus monkey))
T3 chain: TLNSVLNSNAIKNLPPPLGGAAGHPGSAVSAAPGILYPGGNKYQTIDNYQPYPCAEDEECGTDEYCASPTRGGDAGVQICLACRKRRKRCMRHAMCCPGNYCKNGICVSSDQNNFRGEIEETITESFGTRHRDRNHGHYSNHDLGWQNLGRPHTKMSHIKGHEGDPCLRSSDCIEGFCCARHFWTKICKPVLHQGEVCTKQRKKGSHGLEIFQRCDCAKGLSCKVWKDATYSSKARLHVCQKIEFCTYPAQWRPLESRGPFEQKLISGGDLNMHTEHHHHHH


What was measured:
[1] = biological target: Rhesus monkey Dkk-1 (Rhesus monkey); assay: cell-based or functional assay
Mouse Dkk-1 [2] = biological target: T1, Mouse Dkk-1; assay: TRF cell assay, inhibition of Eu-labeled mouse Dkk-1 binding to cells
Experimental: For the assay, the anti-Dkk-1 antibodies were added to HEK cells overexpressing LRP5 (HEK293hLrp5 cells) at final concentrations of 0.2, 0.6, 2.0, 6.0, and 20 nM. Anti-IL3 Receptor monoclonal antibody (8B4) was used as a negative control. Eu-labeled Dkk-1 (100 pM) was incubated with the cells in absence or presence of the antibodies for 20 minutes. Dkk-1 bound in solution by the antibodies and thus blocked from binding to the cell surface of the HEK293hLrp5 cells was removed by 4× wash steps and Eu-labeled Dkk-1 bound to cell surface was measured by TRF signal. Eu-labeled Dkk-1 protein binding to HEK293 cells overexpressing human LRP5 or LRP6 was monitored by measuring the time-resolved fluorescence of bound ligand.

Mouse Dkk-1 [3] = biological target: T1, Mouse Dkk-1; assay: phage ELISA (+), scFv-phage on mouse Dkk-1
[4] = biological target: Rhesus monkey Dkk-1 (Rhesus monkey); assay: TRF cell assay: inhibition of Eu-Dkk-1 binding to HEK293 cells overexpressing LRP5 or LRP6, scFv
[5] = biological target: Rhesus monkey Dkk-1 (Rhesus monkey); assay: SPR, Biacore 3000, several independent runs with different antibody lots
[6] = biological target: Rhesus monkey Dkk-1 (Rhesus monkey); assay: TRF cell-based blocking assay: Eu-labeled rhesus Dkk-1 binding to human LRP5 on HEK293hLrp5 cells, RH2-18 titrated over an extended range; no unit is printed beside the number or on the log axis, M follows from 4.75 nM in paragraph 132
[7] = biological target: Rhesus monkey Dkk-1 (Rhesus monkey); assay: dot blot of native recombinant proteins, 0.1 ng to 100 ng
Human Dkk-1 [8] = biological target: T2, Human Dkk-1; assay: SPR, Biacore 3000, several independent runs with different antibody lots
Experimental: (§1) The affinity of the RH2-18 antibody for human Dkk-1 and Rhesus Dkk-1 was determined by measuring RH2-18 binding kinetics by surface plasmon resonance in a Biacore 3000 instrument according to manufacturer's instructions (Biacore, Inc., Piscataway, N.J.). Several independent affinity studies were performed using different RH2-18 antibody lots against human Dkk-1 and rhesus Dkk-1.

Human Dkk-1 [9] = biological target: T2, Human Dkk-1; assay: SPR, Biacore 3000, mean of several independent runs
Experimental: as §1

[10] = biological target: Rhesus monkey Dkk-1 (Rhesus monkey); assay: TRF cell assay, inhibition of Eu-Dkk-1 binding to HEK293hLrp5 cells, extended dose range
[11] = biological target: Rhesus monkey Dkk-1 (Rhesus monkey); assay: SPR, Biacore 3000, mean of several independent runs
[12] = biological target: Rhesus monkey Dkk-1 (Rhesus monkey); assay: TRF cell assay, inhibition of Eu-Dkk-1 binding to HEK293hLrp5 cells
[13] = biological target: T3, Rhesus monkey Dkk-2 (chimeric protein: …); assay: dot blot of native recombinant protein (0 to 100 ng per spot) probed with RH2-18
Experimental: Native recombinant rhesus monkey Dkk-1, Dkk-2, and cynomolgus monkey Dkk-4 proteins (0.1 ng to 100 ng) were used. A non-related recombinant protein was loaded as a control for non-specific assay signal (HIS protein) and probed with the RH2-18 antibodies.
The Dkk-1 amino acid sequence is closely related to that of Dkk-2 and Dkk-4 with 50% and 45% identity at the amino acid-level, respectively. Cross-reactivity of RH2-18 against rhesus monkey Dkk-2 (using a chimeric protein consisting of the N-terminal region of the rhesus Dkk-1 fused to the C-terminal region of the rhesus Dkk-2 with myc and His-6 tags at the C-terminal end of the Dkk-2 C-terminal region; see SEQ ID NO:71) and cynomolgus monkey Dkk-4 (SEQ ID NO:70) was tested by dot-blot analysis using recombinant proteins. Native recombinant rhesus monkey Dkk-1, Dkk-2, and cynomolgus monkey Dkk-4 proteins (0.1 ng to 100 ng) were used. A non-related recombinant protein was loaded as a control for non-specific assay signal (HIS protein). The dot blots were probed with RH2-18. […] Selectivity of the antibody towards Dkk-1 was minimally 100-fold.

Binder	pTOPflash/Lef-1 luciferase reporter in HEK293hLrp5 cells, Wnt3A plus 50 nM rhesus Dkk-1 [1] [nM]	binding result (Mouse Dkk-1 [2])	binding result (Mouse Dkk-1 [3])	% inhibition of Dkk-1 [4] [%]	other results
RH1-10 antibody (antibody, human IgG2, lambda, V domains shown, IgG converted from the scFv, IgG2M4 heavy chain constant region) VH: QVQLLQSAAEVKKPGESLKISCKGSGYDFPGYYLHWVRQAPGQGLEWMGWINANSGATNYAQNFQGRVTMTRDTSISAAYMELSSLRSDDTAVYYCTREDHWGRGTTVTVSS VL: QSVLTQPPSASGAPGQRVTISCTGSSSNIGAGYDVHWYQQLPGAAPKLLIYGNSNRPSGVPDRFSGSKSGTSASLAITGLQAEDEADYYCQSYDSSLSGYVFGTGTKVTVLG	> 30	binds			
RH1-10 scFv (phage clone) (scFv, V domains shown, Single chain Fv from the CAT phage display library (BMV)) VH: QVQLLQSAAEVKKPGESLKISCKGSGYDFPGYYLHWVRQAPGQGLEWMGWINANSGATNYAQNFQGRVTMTRDTSISAAYMELSSLRSDDTAVYYCTREDHWGRGTTVTVSS VL: QSVLTQPPSASGAPGQRVTISCTGSSSNIGAGYDVHWYQQLPGAAPKLLIYGNSNRPSGVPDRFSGSKSGTSASLAITGLQAEDEADYYCQSYDSSLSGYVFGTGTKVTVLG			binds	89	
RH2-18 antibody (antibody, human IgG2, lambda, V domains shown, also called anti-Dkk-1 antibody RH2-18) VH: EVQLVQSGAEVKKPGASVKVSCKASGYTFTDYYIHWVRQAPGQGLEWMGWIHSNSGATTYAQKFQARVTMSRDTSSSTAYMELSRLESDDTAMYFCSREDYWGQGTLVTVSS VL: QSVLTQPPSVSGAPGQRVTISCTGSSSNIGAGYDVHWYQQLPGTAPKLLIYGYSNRPSGVPDRFSGSKSGASASLAITGLRPDDEADYYCQSYDNSLSSYVFGGGTQLTVLS	> 30	binds			endogenous ALP activity of C3H10T1/2 cells (osteoblastic differentiation), Wnt3A plus recombinant Dkk-1, 3 days [1]: 100 nM; Kd [5]: 0.771 to 0.934 nM; EC50 [6]: 4.75 nM; detection limit for binding [7]: 1 ng; selectivity towards Dkk-1 (fold, against Dkk-2 and Dkk-4) [7]: > 100 fold; Kd (Human Dkk-1 [8]): 0.202 to 0.269 nM; Kd (Human Dkk-1 [9]): 0.251 nM; effective dose [10]: 5 nM; Kd [11]: 0.858 nM; inhibitory activity (concentration) [12]: 4.75 nM; binding result [13]: no binding (tested: 100 ng)
RH2-59 antibody (antibody, human IgG2, lambda, V domains shown, IgG converted from the scFv, IgG2M4 heavy chain constant region) VH: EVQLVQSGAEVKKPGASVKVSCKASGYTFTDYYIHWVRQAPGQGLEWMGWIHSNSGATTYAQKFQARVTMSRDTSSSTAYMELSRLESDDTAMYFCSREDYWGRGTMVTVSS VL: QAVLTQPSSVSGAPGQRVTISCTGSSSNIGAGYDVHWYQQLPGTAPKLLIYANTNRPSGIPDRFSGSKSGTSASLAITGLQTEDEADYYCQSYDTSPSASYVFGTGTKLTVLG		binds			
RH2-80 antibody (antibody, human IgG2, lambda, V domains shown, IgG converted from the scFv, IgG2M4 heavy chain constant region) VH: EVQLVQSGAEVKKPGASVKVSCKASGYTFTDYYIHWVRQAPGQGLEWMGWIHSNSGATTYAQKFQARVTMSRDTSSSTAYMELSRLESDDTAMYFCSREDYWGKGTMVTVSS VL: QAVLTQPSSVSGAPGQRVSISCTGSSSNIGAAYDVHWYQQLPGTAPRLLIYVNNNRPSGVPDRFSGSKSGTSASLVIAGLQAEDEADYYCQSYDNSLNAYVFGTGTKLTVLG	> 30	binds			
RH2-18 scFv (phage clone) (scFv, V domains shown, Single chain Fv from the CAT phage display library (CS)) VH: EVQLVQSGAEVKKPGASVKVSCKASGYTFTDYYIHWVRQAPGQGLEWMGWIHSNSGATTYAQKFQARVTMSRDTSSSTAYMELSRLESDDTAMYFCSREDYWGQGTLVTV VL: QSVLTQPPSVSGAPGQRVTISCTGSSSNIGAGYDVHWYQQLPGTAPKLLIYGYSNRPSGVPDRFSGSKSGASASLAITGLRPDDEADYYCQSYDNSLSSYVFGGGTQLTVLS			binds	74	
RH2-59 scFv (phage clone) (scFv, V domains shown, Single chain Fv from the CAT phage display library (CS)) VH: EVQLVQSGAEVKKPGASVKVSCKASGYTFTDYYIHWVRQAPGQGLEWMGWIHSNSGATTYAQKFQARVTMSRDTSSSTAYMELSRLESDDTAMYFCSREDYWGRGTMVTVSS VL: QAVLTQPSSVSGAPGQRVTISCTGSSSNIGAGYDVHWYQQLPGTAPKLLIYANTNRPSGIPDRFSGSKSGTSASLAITGLQTEDEADYYCQSYDTSPSASYVFGTGTKLTVLG			binds	61	
RH2-80 scFv (phage clone) (scFv, V domains shown, Single chain Fv from the CAT phage display library (CS)) VH: EVQLVQSGAEVKKPGASVKVSCKASGYTFTDYYIHWVRQAPGQGLEWMGWIHSNSGATTYAQKFQARVTMSRDTSSSTAYMELSRLESDDTAMYFCSREDYWGKGTMVTVSS VL: QAVLTQPSSVSGAPGQRVSISCTGSSSNIGAAYDVHWYQQLPGTAPRLLIYVNNNRPSGVPDRFSGSKSGTSASLVIAGLQAEDEADYYCQSYDNSLNAYVFGTGTKLTVLG			binds	62	
